Laboratory results taken from patent US20220162261A1 (published 2022).
Bridge positions count the residues as written; N and C are the ends. Square brackets hold non-standard residues; d marks the D form. Ends that are not written are not given here. Phe(3,4-Cl2) = N[C@@H](Cc1ccc(Cl)c(Cl)c1)C(=O)O; Phe(4-CF3) = N[C@@H](Cc1ccc(C(F)(F)F)cc1)C(=O)O; Phe(4-tBu) = CC(C)(C)c1ccc(C[C@H](N)C(=O)O)cc1; Phe(2,4-Cl2) = N[C@@H](Cc1ccc(Cl)cc1Cl)C(=O)O; NMeR = CN[C@@H](CCCNC(=N)N)C(=O)O; hPhe = N[C@@H](CCc1ccccc1)C(=O)O; Tic = O=C(O)[C@@H]1Cc2ccccc2CN1; β3hE = N[C@@H](CCC(=O)O)CC(=O)O; Pen = CC(C)(S)[C@H](N)C(=O)O

What was measured:
[1] = target: T1, human α4β7 integrin on cells (human, UniProt P13612 34-1032; P26010 20-798); experiment: RPMI8866 cell adhesion to MAdCAM-1
T1 construct: whole, on cells; also called α4β7 cell (Hu); RPMI8866 cells

[2] = target: T2, rh integrin α4β7 (R&D Systems #5397-A30) (human, UniProt P13612 34-970; P26010 20-723); experiment: competition ELISA vs MAdCAM-1
T2 construct: bought; coated on a nickel coated plate; also called immobilized α4β7; immobilized α4β7 integrin protein

Binder | IC50 [1] [nM] | IC50 [2] [nM]
Ac-[Pen][NMeR]SQIQ[Pen][Phe(4-tBu)][β3hE][dK]-NH2 (disulfide 1-7; also: homodimer via DIG linker on D-Lys10 side chains) [SEQ ID NO: 189] | > 10000 | 
Ac-[Pen][NMeR]SDTL[Pen][hPhe]E[dK]-NH2 (disulfide 1-7; not fully specified (residue 10); printed as (Ac Pen N-Me-R S D T L Pen HPhe E k NH2)2 DIG, disulfide Pen-Pen; also: dimer, two subunits joined by DIG linker) [SEQ ID NO: 45] | > 25 | 
Ac-[Pen][NMeR]SDTL[Pen][hPhe]E[dK]-NH2 (disulfide 1-7; SMILES CC(=O)N[C@@H]1C(=O)N(C)[C@@H](CCCNC(=N)N)C(=O)N[C@@H](CO)C(=O)N[C@@H](CC(=O)O)C(=O)N[C@@H]([C@@H](C)O)C(=O)N[C@@H](CC(C)C)C(=O)N[C@H](C(=O)N[C@@H](CCc2ccccc2)C(=O)N[C@@H](CCC(=O)O)C(=O)N[C@H](CCCCN)C(N)=O)C(C)(C)SSC1(C)C) [SEQ ID NO: 19] |  | > 10
Ac-[Pen][NMeR]SDTLC[Tic][dE][dK]-NH2 (disulfide 1-7; SMILES CC(=O)N[C@@H]1C(=O)N(C)[C@@H](CCCNC(=N)N)C(=O)N[C@@H](CO)C(=O)N[C@@H](CC(=O)O)C(=O)N[C@@H]([C@@H](C)O)C(=O)N[C@@H](CC(C)C)C(=O)N[C@H](C(=O)N2Cc3ccccc3C[C@H]2C(=O)N[C@H](CCC(=O)O)C(=O)N[C@H](CCCCN)C(N)=O)CSSC1(C)C) [SEQ ID NO: 89] |  | > 25
Ac-C[NMeR]SDTL[Pen]W[dK]-NH2 (disulfide 1-7; not fully specified (residue 9); printed as (Ac C N-Me-R S D T L Pen W k NH2)2 PEG13, disulfide C-Pen; also: dimer, two subunits joined by PEG13 linker) [SEQ ID NO: 36] | > 50 | 
Ac-[Pen][NMeR]SDTL[Pen][hPhe][dE][dK]-NH2 (disulfide 1-7; SMILES CC(=O)N[C@@H]1C(=O)N(C)[C@@H](CCCNC(=N)N)C(=O)N[C@@H](CO)C(=O)N[C@@H](CC(=O)O)C(=O)N[C@@H]([C@@H](C)O)C(=O)N[C@@H](CC(C)C)C(=O)N[C@H](C(=O)N[C@@H](CCc2ccccc2)C(=O)N[C@H](CCC(=O)O)C(=O)N[C@H](CCCCN)C(N)=O)C(C)(C)SSC1(C)C) [SEQ ID NO: 14] |  | > 25
Ac-[Pen][NMeR]SDDL[Pen]WE[dK]-NH2 (disulfide 1-7; SMILES CC(=O)N[C@@H]1C(=O)N(C)[C@@H](CCCNC(=N)N)C(=O)N[C@@H](CO)C(=O)N[C@@H](CC(=O)O)C(=O)N[C@@H](CC(=O)O)C(=O)N[C@@H](CC(C)C)C(=O)N[C@H](C(=O)N[C@@H](Cc2c[nH]c3ccccc23)C(=O)N[C@@H](CCC(=O)O)C(=O)N[C@H](CCCCN)C(N)=O)C(C)(C)SSC1(C)C) [SEQ ID NO: 46] |  | > 1000
Ac-[Pen][NMeR][dD]DTL[Pen]WE[dK]-NH2 (disulfide 1-7; SMILES CC(=O)N[C@@H]1C(=O)N(C)[C@@H](CCCNC(=N)N)C(=O)N[C@H](CC(=O)O)C(=O)N[C@@H](CC(=O)O)C(=O)N[C@@H]([C@@H](C)O)C(=O)N[C@@H](CC(C)C)C(=O)N[C@H](C(=O)N[C@@H](Cc2c[nH]c3ccccc23)C(=O)N[C@@H](CCC(=O)O)C(=O)N[C@H](CCCCN)C(N)=O)C(C)(C)SSC1(C)C) [SEQ ID NO: 48] |  | > 1000
Ac-[Pen][NMeR]SQIQ[Pen][Phe(4-tBu)][β3hE][dK]-NH2 (disulfide 1-7; also: homodimer via IDA linker on D-Lys10 side chains) [SEQ ID NO: 190] | > 100000 | 
Ac-[Pen][NMeR]SDTL[Pen][Phe(4-tBu)]E[dK]-NH2 (disulfide 1-7; not fully specified (residue 10); printed as (Ac Pen N-Me-R S D T L Pen F(4tBu) E k NH2)2 DIG, disulfide Pen-Pen; also: homodimer, two subunits joined by DIG linker) [SEQ ID NO: 131] |  | ≤ 10
Ac-[Pen][NMeR]SDTL[Pen][Phe(4-CF3)][dE][dK]-NH2 (disulfide 1-7; not fully specified (residue 10); printed as (Ac Pen N-Me-R S D T L Pen F(4-CF3) e k NH2)2 DIG, disulfide Pen-Pen; also: dimer, two subunits joined by DIG linker) [SEQ ID NO: 3] | > 25 | 
Ac-[Pen][NMeR]SDTL[Pen][Phe(2,4-Cl2)]E[dK]-NH2 (disulfide 1-7; SMILES CC(=O)N[C@@H]1C(=O)N(C)[C@@H](CCCNC(=N)N)C(=O)N[C@@H](CO)C(=O)N[C@@H](CC(=O)O)C(=O)N[C@@H]([C@@H](C)O)C(=O)N[C@@H](CC(C)C)C(=O)N[C@H](C(=O)N[C@@H](Cc2ccc(Cl)cc2Cl)C(=O)N[C@@H](CCC(=O)O)C(=O)N[C@H](CCCCN)C(N)=O)C(C)(C)SSC1(C)C) [SEQ ID NO: 16] |  | > 10
Ac-[Pen][NMeR]SDTL[Pen][Phe(3,4-Cl2)]E[dK]-NH2 (disulfide 1-7; SMILES CC(=O)N[C@@H]1C(=O)N(C)[C@@H](CCCNC(=N)N)C(=O)N[C@@H](CO)C(=O)N[C@@H](CC(=O)O)C(=O)N[C@@H]([C@@H](C)O)C(=O)N[C@@H](CC(C)C)C(=O)N[C@H](C(=O)N[C@@H](Cc2ccc(Cl)c(Cl)c2)C(=O)N[C@@H](CCC(=O)O)C(=O)N[C@H](CCCCN)C(N)=O)C(C)(C)SSC1(C)C) [SEQ ID NO: 17] |  | > 10
C[NMeR]SDTL[Pen]W-NH2 (disulfide 1-7; not fully specified (N-terminus); printed as PEG25 NH2 C N-Me-R S D T L Pen W NH2, disulfide C-Pen; also: N-terminal PEG25 linker, number of subunits not shown, N-terminal linker printed without dimer brackets) [SEQ ID NO: 21] | > 50 | 
Ac-C[NMeR]SDTL[Pen]W[dK]-NH2 (disulfide 1-7; not fully specified (residue 9); printed as (Ac C N-Me-R S D T L Pen W k NH2)2 PEG25, disulfide C-Pen; also: dimer, two subunits joined by PEG25 linker) [SEQ ID NO: 37] | > 100 | 
Ac-[Pen][NMeR]SQIQ[Pen][Phe(4-tBu)][β3hE][dK]-NH2 (disulfide 1-7; also: homodimer via IDA linker on D-Lys10 side chains, Alexa-647 label) [SEQ ID NO: 192] | > 10000 | 
